One may read the stoichiometry N as a count of units in the complex or per binding partner.

The assay addresses MucR from Brucella abortus (wild-type full-length protein) (Brucella abortus). The assay can be described thus: SEC-MALS. (Size exclusion chromatography separates by hydrodynamic size, large species first.)

For “MucR from Brucella abortus (wild-type full-length protein) (natural protein)”, the stoichiometry N turned out to be 10.4.

The values are drawn from publication PMC6250670.
